According to patent US7115556B2, “Use of anti-prolactin agents to treat proliferative conditions” (Greenville Hospital System, priority 1998, dated 2006):

Experiments:
[1] = test system: MCF-7 human breast cancer cells; assay: Mixed cell culture assay with transfected L cells, MCF-7; format: cell-based; settings: MCF-7, three days
[2] = test system: T47-D human breast cancer cells; assay: 96 well cell proliferation assay with conditioned media (MTS-PMS); format: cell-based
Experimental: HPRLG129R Conditioned Media. The assay conditions were modified from that described by Ginsburg and Vonderharr (1995, Cancer Res. 55:2591–2595). T47-D cells were trypsinized and passed into 96 well plates in RPMI-1640 media containing 1% DCC-FCS in a volume of 100 μl/well. The optimal cell number/well for each cell line was pre-determined after titration assay. For T47-D cells, 15,000 cells/well were plated. The cells were allowed to settle and adhere overnight (12–18 hours) and subsequently various concentrations of either hPRL, hRPL-G129R, E2 or 4-OH-Tamoxifen in a total volume of 100 μl of culture media were added. Purified hPRL (kindly provided by Dr. Parlow, National Hormone & Pituitary Program, NIH) was used as a positive control for hPRL produced from stable L cells. Cells were incubated for an additional 96 hours at 37° C. in a humidified 5% CO2 incubator. After incubation, MTS-PMS solution (Cell Titer 96 Aqueous kit, Promega Corp.) was added to each well, following the manufacturer's instructions. Plates were read at 490 nm using a BIO-RAD benchmark microplate reader. The experiments were carried out in triplicates and repeated three to six times for each cell line.

rat Nb2 T lymphoma cells = settings: Goffin et al., 1994; cited from earlier work

B1: hPRL-G129R: variant of human prolactin having a substitution of the glycine at position 129 with an arginine residue; prolactin receptor antagonist (protein)
chain: LPICPGGAARCQVTLRDLFDRAVVLSHYIHNLSSEMFSEFDKRYTHGRGFITKAINSCHTSSLATPEDKEQAQQMNQKDFLSLIVSILRSWNEPLYHLVTEVRGMQEAPEAILSKAVEIEEQTKRLLERMELIVSQVHPETKENEIYPVWSGLPSLQMADEESRLSAYYNLLHCLRRDSHKIDNYLKLLKCRIIHNNNC
[1]
  effect on proliferation in mixed cell culture: inhibitory effect
[2]; 100 nM 4-OH-Tamoxifen in the presence of 100 ng/ml hPRL-G129R
  inhibitory effect of combination: approximately 32 % of control
[2]; 1:1 molar ratio hPRL-G129R:hPRL
  effect on hPRL induced cell proliferation: stop the stimulatory effect of hPRL
[2]; 2:1 molar ratio hPRL-G129R:hPRL
  effect on hPRL induced cell proliferation: inhibited cell proliferation
[2]; 4-OH-Tamoxifen at 500 nM, T47-D
  maximum inhibition by a single dose: 25 % of control
[2]; hPRL-G129R 150 ng/ml
  inhibitory potency compared with maximal 500 nM dose of 4-OH-Tamoxifen: more potent
[2]; hPRL-G129R applied together with 4-OH-Tamoxifen
  inhibitory effects of combination compared to maximum dose of either agent: doubled
[2]; single dose, four-day incubation
  effect on T47-D proliferation, dose response: dose dependent inhibitory effects
Rat Nb2 T lymphoma cells
  activity in Nb2 proliferation assay: weak agonist
